pIC50: −log10 of the molar value. Read-outs that look alike come from different tables or passages of the source.
Legend:
[1] = target: OVA.β2m.Kb SCT Y84A (mouse) (UniProt P01887)
[2] = target: OVAp5Y.β2m.Kb Y84A SCT (mouse) (UniProt P01887)
[3] = target: OVA.β2m.Kb SCT Y84A (mouse) (UniProt P01887); remark: listed apart in the source
[4] = target: native K^b on cells, loaded with endogenous peptides (mouse) (UniProt P01887); assay: cell-based or functional assay

## SIYR peptide
[1]
  pIC50: 5.90
[2]
  pIC50: 4.40
[3]
  pIC50: 3.90

## VSV8 peptide
[4]
  VSV8 concentration that activates the N15 hybridoma; LM1.8 cells (FIG. 11C): 1 nM

From US20090117153A1
